Experimental data: article PMC2877774, “Structural and Biochemical Bases for the Redox Sensitivity of Mycobacterium tuberculosis RslA” (Journal of Molecular Biology, 2010)
Where “and” joins values, the source holds several entries; their conditions need not be identical. Equal values may be shown once.

B1: Anti-σ domain (ASD) of Mycobacterium tuberculosis RslA (residues 1–108), Zn2+-bound (domain or fragment)
chain: MTMPLRGLGPPDDTGVREVSTGDDHHYAMWDAAYVLGALSAADRREFEAHLAGCPECRGAVTELCGVPALLSQLDRDEVAAISESAPTVVASGLSPELLPSLLAAVHR
notes: Anti-sigma-L factor RslA, Mycobacterium tuberculosis, cytosolic anti-sigma domain, residues 1-108; also called holo-RslA; Mtb RslA

Assays:
[1] = molecular target: B1; test: SPR; BIACORE 2000; RslA immobilised on a CM5 chip at 12 ng/mm2; σ^L, σ2^L, σ4^L as analytes; 20 mM Tris-HCl pH 7.8, 200 mM NaCl, 50 mM imidazole, 1 mM DTT (holo-RslA); conditions: both partners purified
[2] = molecular target: the molecule itself; test: SEC + other: dynamic light scattering

Row | Binder | Kd [1] [nM] | stoichiometry N [2]
1 | σ2^L domain of Mycobacterium tuberculosis σ^L (domain or fragment) MARVSGAAAAEAALMRALYDEHAAVLWRYALRLTGDAAQAEDVVQETLLRAWQHPEVIGDTARPARAWLFTVARNMIIDERRSARFRNVV | ~2000 | 
2 | B1 |  | 2 and 4
3 | Apo-RslA: anti-σ domain of Mycobacterium tuberculosis RslA (residues 1–108), Zn2+-free, oxidized (domain or fragment, disulfide bond between Cys54 and Cys57 in oxidized apo-RslA; Zn2+ removed, For SPR the Zn2+ was removed on the chip with 10 mM H2O2 and 2 mM TPEN; in solution with 1 mM H2O2 and 5 mM TPEN; also called Zn^2+-free RslA; oxidized RslA) MTMPLRGLGPPDDTGVREVSTGDDHHYAMWDAAYVLGALSAADRREFEAHLAGCPECRGAVTELCGVPALLSQLDRDEVAAISESAPTVVASGLSPELLPSLLAAVHR |  | 2 and 4
